As usually defined, the Kd is the equilibrium constant for the complex coming apart. The low end stands for a tighter complex, the high end for a looser complex.

Numbering of substitutions follows the chain as printed.

Assay in all cases: SPR as in Example 1.8
Assay [1] concerns the target T1, FGFR1 D2 point mutant G93A (human, UniProt P11362 22-254).
T1 chain: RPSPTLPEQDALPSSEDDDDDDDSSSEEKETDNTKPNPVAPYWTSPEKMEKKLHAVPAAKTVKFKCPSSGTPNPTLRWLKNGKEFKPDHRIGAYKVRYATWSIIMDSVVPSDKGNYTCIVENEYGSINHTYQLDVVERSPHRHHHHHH
How it is done: (§1) Binding affinities of anti-FGFR1 antibodies to FGFR1 were measured by Surface Plasmon Resonance (SPR) using a GE Healthcare BIAcore 4000 instrument as follows. Goat anti-human Fc antibody (Jackson ImmunoResearch Laboratories #109-005-098) was first immobilized on BIAcore carboxymethylated dextran CM5 chip using direct coupling to free amino groups following the procedure described by the manufacturer. Antibodies were then captured on the CM5 biosensor chip to achieve approximately 200 response units (RU). Binding measurements were performed using the running HBS-EP+ buffer. A 2-fold dilution series of His-tagged FGFR1 proteins were injected at a flow rate of 30 μl/min at 25° C. Association rates (kₒₙ, per mol/s) and dissociation rates (koff, per s) were calculated using a simple 1:1 Langmuir binding model (Biacore 4000 Evaluation Software). The equilibrium dissociation constant (KD, mol) was calculated as the ratio of koff/kₒₙ.
(§2) To obtain a finer, residue-level mapping of the epitope and to complement the HD exchange data, molecular modelling and manual inspection of the crystal structure of FGFR1 [(Beenken et al. 2012); PDB record 3OJV] was used to select solvent exposed residues within and around the epitope identified by HD exchange. The selected residues were mutated either to alanine (large to small) or to glycine if the selected residue was alanine. In total 35 point mutants were designed, expressed and purified in HEK cells, and tested for binding to mAb #A08 using surface plasmon resonance as described in Example 1.8. The affinity of the antibody for wild-type and each mutant was determined and used to calculate the contribution of each epitope residue to the binding energy.

The target of assay [2] is T2, FGFR1 D2 point mutant R97A (human, UniProt P11362 22-254).
T2 chain: T1 chain with A93G, R97A
How it is done: as §1, §2

For assay [3], the target named is T3, FGFR1 D2 point mutant K86A (human, UniProt P11362 22-254).
T3 chain: T1 chain with K86A, A93G
The protocol: as §1, §2

Assay [4] concerns the target T4, human FGFR1b-IIIb extracellular domain with a HIS tag (human).
T4 construct: also called huFGFR1b-IIIb; hFGFR1b-IIIb
T4 chain: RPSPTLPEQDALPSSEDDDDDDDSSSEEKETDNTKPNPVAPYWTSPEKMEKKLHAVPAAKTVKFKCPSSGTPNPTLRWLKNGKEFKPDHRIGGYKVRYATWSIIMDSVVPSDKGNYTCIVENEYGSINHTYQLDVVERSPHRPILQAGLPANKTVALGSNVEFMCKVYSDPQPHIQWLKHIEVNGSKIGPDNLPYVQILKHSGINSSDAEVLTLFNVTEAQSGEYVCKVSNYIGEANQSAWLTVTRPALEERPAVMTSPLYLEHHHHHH
The protocol:
as §1, §2

Assay [5] concerns the target T5, FGFR1 D2 point mutant A58G (human, UniProt P11362 22-254).
T5 chain: T1 chain with A58G, A93G
The protocol: as §1, §2

Another assay addresses T6, Human FGFR1 D2-His6 (human, UniProt P11362 22-254).
T6 construct: also called D2 domain; F3FR1c-D2
T6 sequence: T1 chain with A93G
The protocol:
as §1, §2

For assay [6], the target named is T7, FGFR1 D2 point mutant H54A (human, UniProt P11362 22-254).
T7 chain: T1 chain with H54A, A93G
How it is done: as §1, §2

Assay [7] deals with T8, FGFR1 D2 point mutant A59G (human, UniProt P11362 22-254).
T8 chain: T1 chain with A59G, A93G
The protocol: as §1, §2

Assay [8] has as its target T9, FGFR1 D2 point mutant K48A (human, UniProt P11362 22-254).
T9 chain: T1 chain with K48A, A93G
The protocol: as §1, §2

The target in assay [9] is T10, FGFR1 D2 point mutant Y98A (human, UniProt P11362 22-254).
T10 chain: T1 chain with A93G, Y98A
How it is done:
as §1, §2

B1: mAb #A08 (antibody, V domains shown)
VH: EVQLQESGPGLVKPSGTLSLTCAVSGGSISSNNWWSWVRQPPGKGLEWIGEIYHSGSTSYNPSLKSRVTISVDKSKNQFSLKLNSVTAADTAVYYCARGTDWFDPWGQGTLVTVSS
VL: QAVLTQPPSVSVAPGQTARITCGGNNIGSESVHWYQQKPGQAPVLVVYDDSDRPSGIPERFSGSNSGNTATLTISRVEAGDEADYYCQVWDSTSDHRVFGGGTKLTVL
notes: Only variable domains are tied to the name mAb #A08 (hit); also called #A08 hit; mAb #08
On to B1, for which the Kd in assay [1] was 0.32 nM; in assay [2] it was 4.25 nM; in assay [3] it was 0.18 nM; in assay [4] it was 0.47 nM; in assay [5] it was 2.2 nM; with Human FGFR1 D2-His6, 0.19 nM. Moreover, the Kd in [6] came to 0.36 nM; in [7] it was 3.91 nM; in assay [8] it was 0.09 nM; in [9] it was 0.18 nM.
